# How the values were obtained:
# [1] = molecular target: AhR-ARNT heterodimer (human AhR, human ARNT) (Homo sapiens) (UniProt P35869+P27540); assay: cell_activity; conditions: yeast A303 lacZ reporter, average induction over background with bNF or aNF; ligand EC50 7.9e-8 M for bNF
# [2] = test system: LexA(1-202)-AhR N-delta-166 chimera (Escherichia coli? / Mus musculus?); assay: cell_activity; conditions: yeast GRS4 lacZ reporter, average induction over background with bNF or aNF; ligand EC50 6.1e-8 M for bNF
# Sequence of AhR-ARNT heterodimer (human AhR, human ARNT) (Homo sapiens) (P35869 whole entry, chain 1 of 2): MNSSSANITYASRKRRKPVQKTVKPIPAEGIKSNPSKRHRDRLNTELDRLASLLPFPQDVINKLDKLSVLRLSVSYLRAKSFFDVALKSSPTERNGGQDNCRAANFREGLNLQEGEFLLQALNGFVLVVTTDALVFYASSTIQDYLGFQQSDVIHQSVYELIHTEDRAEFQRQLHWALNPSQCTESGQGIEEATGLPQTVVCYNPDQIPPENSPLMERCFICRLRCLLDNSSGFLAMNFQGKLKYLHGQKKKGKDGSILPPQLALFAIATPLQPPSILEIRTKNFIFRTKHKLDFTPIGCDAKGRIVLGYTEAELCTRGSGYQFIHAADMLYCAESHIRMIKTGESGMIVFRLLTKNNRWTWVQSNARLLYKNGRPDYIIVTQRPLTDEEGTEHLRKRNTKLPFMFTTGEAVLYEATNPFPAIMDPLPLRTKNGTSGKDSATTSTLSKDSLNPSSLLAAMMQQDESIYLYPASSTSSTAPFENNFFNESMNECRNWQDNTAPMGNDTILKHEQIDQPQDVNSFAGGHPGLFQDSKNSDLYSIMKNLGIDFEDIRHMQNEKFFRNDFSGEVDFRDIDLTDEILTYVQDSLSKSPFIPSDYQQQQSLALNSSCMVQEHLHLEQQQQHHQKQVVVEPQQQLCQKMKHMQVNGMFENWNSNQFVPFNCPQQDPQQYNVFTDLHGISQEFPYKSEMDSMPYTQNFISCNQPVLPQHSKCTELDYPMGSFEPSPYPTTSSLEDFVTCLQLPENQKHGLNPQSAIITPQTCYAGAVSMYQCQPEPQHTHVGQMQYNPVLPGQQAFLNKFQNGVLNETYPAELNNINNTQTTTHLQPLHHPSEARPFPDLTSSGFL
# Sequence of AhR-ARNT heterodimer (human AhR, human ARNT) (Homo sapiens) (P27540 whole entry, chain 2 of 2): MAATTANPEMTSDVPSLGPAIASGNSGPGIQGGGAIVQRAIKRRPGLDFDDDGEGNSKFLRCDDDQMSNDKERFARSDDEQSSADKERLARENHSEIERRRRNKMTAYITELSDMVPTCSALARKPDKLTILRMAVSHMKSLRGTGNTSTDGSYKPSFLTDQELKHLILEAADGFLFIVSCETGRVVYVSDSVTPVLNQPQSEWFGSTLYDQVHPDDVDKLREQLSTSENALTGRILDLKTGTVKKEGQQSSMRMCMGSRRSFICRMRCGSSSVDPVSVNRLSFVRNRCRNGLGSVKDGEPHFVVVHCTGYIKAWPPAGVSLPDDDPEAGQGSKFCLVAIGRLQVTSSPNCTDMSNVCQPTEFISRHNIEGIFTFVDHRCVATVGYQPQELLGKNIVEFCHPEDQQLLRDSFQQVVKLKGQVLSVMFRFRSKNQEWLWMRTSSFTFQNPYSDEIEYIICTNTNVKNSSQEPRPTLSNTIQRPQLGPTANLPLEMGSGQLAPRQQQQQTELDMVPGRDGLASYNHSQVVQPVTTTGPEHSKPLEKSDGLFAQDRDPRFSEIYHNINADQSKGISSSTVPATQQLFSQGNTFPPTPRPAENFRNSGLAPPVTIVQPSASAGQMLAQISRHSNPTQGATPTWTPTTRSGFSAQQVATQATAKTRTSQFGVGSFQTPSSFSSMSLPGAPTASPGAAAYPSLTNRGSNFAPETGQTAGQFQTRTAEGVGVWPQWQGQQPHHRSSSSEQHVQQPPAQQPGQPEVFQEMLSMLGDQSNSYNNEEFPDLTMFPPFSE
Substance,activity [1] [fold],activity [2] [fold]
DRE2-DRE3 reporter (pDRE23-Z),12,–
eight LexA operator reporter (pSH18-34),–,90

# Reference: patent publication US20050288488
